According to article doi:10.1101/2020.04.15.043356 (bioRxiv, 2020):

B1: 6xHis-Grh1 (natural protein, S. cerevisiae, UniProt Q04410 1-372, looked up)
chain: MFRIAKNLVRTFEQSVQDTLALSQDSSNLDAFFQSIPPNLLSAQLESPVDAVSEGVKHTNVNETLSGLRIVWVDEMQFQLQSFFDYIVGFNDDPVPVVSNQHGFSYPDYRRITSIFNEHCGRTLKVNIWSAKGGTFRDEYISIISKESDDLDDVSLNHDERRPSSGEAHQFQALGFKVQWTPLIASTFTYHILNVNIPDGPAQSAGLIPDEDYIIGCQDGLLATGGETLLQDIVRSRANYDLVLYVYNKVSDCVRPITVHIGPDGRLGCNVGYGFLHRIPTVKHCPQQAQQQGQDDNPVPVPVPVESETAFVPSAFTAPPVPTKKKSKNKKGTQPLAMDDYFNEGRDKSSTAAKSAESDILAPPPQKQSSSD
B2: GST-Sec23 (natural protein, S. cerevisiae)
chain: MDFETNEDINGVRFTWNVFPSTRSDANSNVVPVGCLYTPLKEYDELNVAPYNPVVCSGPHCKSILNPYCVIDPRNSSWSCPICNSRNHLPPQYTNLSQENMPLELQSTTIEYITNKPVTVPPIFFFVVDLTSETENLDSLKESIITSLSLLPPNALIGLITYGNVVQLHDLSSETIDRCNVFRGDREYQLEALTEMLTGQKPTGPGGAASHLPNAMNKVTPFSLNRFFLPLEQVEFKLNQLLENLSPDQWSVPAGHRPLRATGSALNIASLLLQGCYKNIPARIILFASGPGTVAPGLIVNSELKDPLRSHHDIDSDHAQHYKKACKFYNQIAQRVAANGHTVDIFAGCYDQIGMSEMKQLTDSTGGVLLLTDAFSTAIFKQSYLRLFAKDEEGYLKMAFNGNMAVKTSKDLKVQGLIGHASAVKKTDANNISESEIGIGATSTWKMASLSPYHSYAIFFEIANTAANSNPMMSAPGSADRPHLAYTQFITTYQHSSGTNRIRVTTVANQLLPFGTPAIAASFDQEAAAVLMARIAVHKAETDDGADVIRWLDRTLIKLCQKYADYNKDDPQSFRLAPNFSLYPQFTYYLRRSQFLSVFNNSPDETAFYRHIFTREDTTNSLIMIQPTLTSFSMEDDPQPVLLDSISVKPNTILLLDTFFFILIYHGEQIAQWRKAGYQDDPQYADFKALLEEPKLEAAELLVDRFPLPRFIDTEAGGSQARFLLSKLNPSDNYQDMARGGSTIVLTDDVSLQNFMTHLQQVAVSGQA

Key:
GST-Sec23 = target: B2; experiment: pull-down
[1] = target: Sec13/Sec31 outer coat complex (wild type, His tag removed) (S. cerevisiae, UniProt Q04491 1-297; P38968 1-1273); experiment: pull-down
Sequence of Sec13/Sec31 outer coat complex (wild type, His tag removed) (Q04491 whole entry, chain 1 of 2): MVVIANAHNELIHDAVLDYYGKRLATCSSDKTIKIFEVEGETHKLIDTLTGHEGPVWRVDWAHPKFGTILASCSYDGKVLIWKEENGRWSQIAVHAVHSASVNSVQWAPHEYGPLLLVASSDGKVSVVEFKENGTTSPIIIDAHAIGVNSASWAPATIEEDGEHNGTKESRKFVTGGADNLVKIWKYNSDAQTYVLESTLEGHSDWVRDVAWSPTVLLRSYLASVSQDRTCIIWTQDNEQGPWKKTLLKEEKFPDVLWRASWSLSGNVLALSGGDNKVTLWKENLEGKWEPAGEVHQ
Sequence of Sec13/Sec31 outer coat complex (wild type, His tag removed) (P38968 whole entry, chain 2 of 2): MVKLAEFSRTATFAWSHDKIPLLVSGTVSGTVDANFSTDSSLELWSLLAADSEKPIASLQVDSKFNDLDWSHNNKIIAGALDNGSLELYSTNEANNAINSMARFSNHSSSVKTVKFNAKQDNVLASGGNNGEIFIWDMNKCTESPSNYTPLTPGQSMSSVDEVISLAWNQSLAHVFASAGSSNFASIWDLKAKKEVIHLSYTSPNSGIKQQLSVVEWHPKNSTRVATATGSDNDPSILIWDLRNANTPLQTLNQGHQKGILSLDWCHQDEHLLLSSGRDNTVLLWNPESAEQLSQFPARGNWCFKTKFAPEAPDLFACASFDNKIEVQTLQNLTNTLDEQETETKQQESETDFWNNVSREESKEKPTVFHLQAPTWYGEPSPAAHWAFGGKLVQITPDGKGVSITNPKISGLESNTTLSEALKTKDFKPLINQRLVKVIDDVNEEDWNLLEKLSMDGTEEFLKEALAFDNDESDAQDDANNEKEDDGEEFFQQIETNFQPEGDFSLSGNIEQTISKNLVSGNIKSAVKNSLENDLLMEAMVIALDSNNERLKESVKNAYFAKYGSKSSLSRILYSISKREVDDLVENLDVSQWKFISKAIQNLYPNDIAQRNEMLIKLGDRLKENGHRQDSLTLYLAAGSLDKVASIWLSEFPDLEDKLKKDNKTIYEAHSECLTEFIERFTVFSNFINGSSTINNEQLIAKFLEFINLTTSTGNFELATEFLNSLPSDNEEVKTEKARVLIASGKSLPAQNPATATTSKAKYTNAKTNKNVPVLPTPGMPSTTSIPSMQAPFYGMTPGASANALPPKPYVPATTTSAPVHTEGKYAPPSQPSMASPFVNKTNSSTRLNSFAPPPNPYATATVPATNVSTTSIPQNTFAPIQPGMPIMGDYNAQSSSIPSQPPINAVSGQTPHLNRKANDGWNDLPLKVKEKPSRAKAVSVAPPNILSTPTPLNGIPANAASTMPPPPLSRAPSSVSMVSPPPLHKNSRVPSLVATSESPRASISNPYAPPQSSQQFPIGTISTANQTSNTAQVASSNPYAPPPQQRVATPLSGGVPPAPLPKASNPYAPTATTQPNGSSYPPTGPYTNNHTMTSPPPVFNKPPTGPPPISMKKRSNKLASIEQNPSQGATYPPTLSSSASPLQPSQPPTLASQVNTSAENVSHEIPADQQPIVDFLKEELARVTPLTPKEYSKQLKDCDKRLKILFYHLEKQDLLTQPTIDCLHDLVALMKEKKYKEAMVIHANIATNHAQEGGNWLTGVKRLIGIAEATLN

binding result (GST-Sec23)	binding result [1]	Binder
binds		B1
	binds	B2
